From article PMC6449940, “The Cdc42 effectors Gic1 and Gic2 regulate polarized post-Golgi secretion” (Cell & Bioscience, 2019)

Target: T1, His6-Cdc42 (S. cerevisiae, UniProt P19073 1-191)
T1 construct: Cdc42, small GTPase, S. cerevisiae; also called Hisx6-Cdc42; Cdc42 wild type; source: bacteria, purified (Hisx6 fusion)
Assay: pull-down; GST-Sec3N (a.a.71–241) on glutathione Sepharose (20 μg), His6-Cdc42 or mutant (10 μg) in the presence of GTPγS; bound protein detected with anti-Hisx6 antibody
Settings: both partners purified

T1 sequence (P19073 whole entry, the tested form may be a part): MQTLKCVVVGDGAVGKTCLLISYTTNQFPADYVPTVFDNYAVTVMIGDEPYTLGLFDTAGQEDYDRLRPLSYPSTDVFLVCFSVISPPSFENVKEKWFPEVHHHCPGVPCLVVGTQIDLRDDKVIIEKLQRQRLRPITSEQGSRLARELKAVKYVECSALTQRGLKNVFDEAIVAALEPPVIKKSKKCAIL

B1: GST-Sec3N (a.a.71–241) (domain or fragment, S. cerevisiae (budding yeast), UniProt P33332 71-241, looked up)
chain: SSQTSNFLAEQYERDRKAIINCCFSRPDHKTGEPPNNYITHVRIIEDSKFPSSRPPPDSKLENKKKRLLILSAKPNNAKLIQIHKARENSDGSFQIGRTWQLTELVRVEKDLEISEGFILTMSKKYYWETNSAKERTVFIKSLITLYIQTFEGHVPELVNWDLSLFYLDER
notes: Sec3, exocyst subunit, budding yeast, residues 71-241 (N-terminus, PH domain-like region); also called Amino-terminus of Sec3 (a.a.71–241); source: GST fusion protein, purified and conjugated to glutathione Sepharose
binding result: binds
